In patent publication US11807689:

Molecular target: C1q Receptor in the complement system (rabbit serum complement) (rabbit)
Assay: cell-based or functional assay

| Substance | CDC EC50 (Jeko-1 cells, rabbit serum) [µg/mL] |
| --- | --- |
| ARZERRA (ofatumumab) (antibody) | 0.353 |
| OCREVUS (ocrelizumab) (antibody) | 1.21 |
| RITUXAN (rituximab) (antibody) | 0.245 |
